The text below walks through data of patent US20220401524A1.

Assay [1] has as its target complement C1q (human) (UniProt P02745). In words: flow cytometry, vWF on cholesterol crystals with C1q against crystals without C1q.
The target is the same in assay [2]. In words: flow cytometry, vWF (10 µg/ml) bound to C1q immobilized on cholesterol crystals, mean of n=5.
For assay [3] the target is unchanged. Kind of assay: cell-based or functional assay.

Sequence of UniProt P02745 (P02745 23-245, chain 1 of 3): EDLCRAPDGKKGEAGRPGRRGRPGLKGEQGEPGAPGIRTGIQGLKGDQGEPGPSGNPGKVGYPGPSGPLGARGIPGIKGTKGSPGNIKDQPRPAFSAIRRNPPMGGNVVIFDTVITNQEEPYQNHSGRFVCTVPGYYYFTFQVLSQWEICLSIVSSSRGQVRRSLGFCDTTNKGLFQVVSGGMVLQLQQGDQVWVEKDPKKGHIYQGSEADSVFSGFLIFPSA
Sequence of UniProt P02745 (chain, as listed by the source, chain 2 of 3): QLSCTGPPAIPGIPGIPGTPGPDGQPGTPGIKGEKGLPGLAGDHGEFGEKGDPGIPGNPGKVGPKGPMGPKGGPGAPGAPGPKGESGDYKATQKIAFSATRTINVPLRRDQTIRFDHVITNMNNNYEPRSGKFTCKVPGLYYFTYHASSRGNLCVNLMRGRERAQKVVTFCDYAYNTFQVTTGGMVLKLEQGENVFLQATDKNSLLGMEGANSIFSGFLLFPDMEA
Sequence of UniProt P02745 (chain, as listed by the source, chain 3 of 3): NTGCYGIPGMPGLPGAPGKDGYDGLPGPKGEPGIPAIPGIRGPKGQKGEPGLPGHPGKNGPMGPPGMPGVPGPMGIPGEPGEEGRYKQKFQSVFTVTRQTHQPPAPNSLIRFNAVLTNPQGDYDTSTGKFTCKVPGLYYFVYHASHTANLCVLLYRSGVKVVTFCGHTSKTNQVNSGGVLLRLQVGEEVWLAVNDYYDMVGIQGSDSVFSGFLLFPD

Turning to “recombinant von Willebrand factor (from UniProt P04275 764-2813) (ligand)”, the fold gMFI against CC without C1q with complement C1q (human) [1] was determined as 67 fold. In the assay with complement C1q (human) [2], this substance returned a gMFI of 134000 gMFI. In the assay with complement C1q (human) [3], this substance returned a caspase-1 activity of HMDMs (% CD11c+ cells in FLICA+ gate) of 9.37%; an early phagocytosis of pHrodo-dyed CC complexes by HMDMs (30 min, % CD11c+ cells in pHrodo Red Ester+ gate) of 54.5%; a late phagocytosis of CC complexes by HMDMs (18 hr, % CD11c+ cells in SSC high gate) of 13.7%.
